Where a chain is given by its changes, count along the chain named. Read-outs that look alike come from different tables or passages of the source.
T1: VAL1-B3 wt (C-terminal His6) (Arabidopsis thaliana, UniProt Q8W4L5 288-397)
T1 sequence: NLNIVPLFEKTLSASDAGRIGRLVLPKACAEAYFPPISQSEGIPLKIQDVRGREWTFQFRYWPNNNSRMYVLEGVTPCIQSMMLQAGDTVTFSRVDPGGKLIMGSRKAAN

T2: VAL1-B3 N352A (Arabidopsis thaliana, UniProt Q8W4L5 288-397, N352A)
T2 sequence: T1 sequence with N65A

T3: VAL1-B3 I307A (Arabidopsis thaliana, UniProt Q8W4L5 288-397, I307A)
T3 sequence: T1 sequence with I20A

T4: VAL1-B3 Q345R (Arabidopsis thaliana, UniProt Q8W4L5 288-397, Q345R)
T4 sequence: T1 sequence with Q58R

T5: VAL1-B3 R306A (Arabidopsis thaliana, UniProt Q8W4L5 288-397, R306A)
T5 sequence: T1 sequence with R19A

B1: 12/12_1C (dsDNA)
DNA 1: CGGCGCATGGCT
DNA 2: AGCCATGCGCCG
B2: 12/12_6C (dsDNA)
DNA 1: CGGTGCATCGCT
DNA 2: AGCGATGCACCG
B3: 12/12_6T (dsDNA)
DNA 1: CGGTGCATTGCT
DNA 2: AGCAATGCACCG
B4: 12/12_3A (dsDNA)
DNA 1: CGGTGAATGGCT
DNA 2: AGCCATTCACCG
B5: 12/12_3T (dsDNA)
DNA 1: CGGTGTATGGCT
DNA 2: AGCCATACACCG
B6: 12/12_6A (dsDNA)
DNA 1: CGGTGCATAGCT
DNA 2: AGCTATGCACCG
B7: 12/12_5A (dsDNA)
DNA 1: CGGTGCAAGGCT
DNA 2: AGCCTTGCACCG
B8: 12/12_4T (dsDNA)
DNA 1: CGGTGCTTGGCT
DNA 2: AGCCAAGCACCG
B9: 12/12_2A (dsDNA)
DNA 1: CGGTACATGGCT
DNA 2: AGCCATGTACCG
B10: 12/12_1A (dsDNA)
DNA 1: CGGAGCATGGCT
DNA 2: AGCCATGCTCCG
B11: 12/12SP_2 (dsDNA)
DNA 1: CGCTGCATGCCT
DNA 2: AGGCATGCAGCG
B12: 12/12_5C (dsDNA)
DNA 1: CGGTGCACGGCT
DNA 2: AGCCGTGCACCG
B13: 12/12_2C (dsDNA)
DNA 1: CGGTCCATGGCT
DNA 2: AGCCATGGACCG
B14: 12/12SP (dsDNA)
DNA 1: CGGTGCATGGCT
DNA 2: AGCCATGCACCG
B15: 12/12_2T (dsDNA)
DNA 1: CGGTTCATGGCT
DNA 2: AGCCATGAACCG

Columns and labels:
Test in all cases: EMSA
[1] = biological target: T1, VAL1-B3 wt (C-terminal His6)
[2] = biological target: T1, VAL1-B3 wt (C-terminal His6); remark: listed apart in the source
[3] = biological target: T1, VAL1-B3 wt (C-terminal His6); remark: listed apart in the source
VAL1-B3 N352A = biological target: T2, VAL1-B3 N352A
VAL1-B3 I307A = biological target: T3, VAL1-B3 I307A
VAL1-B3 Q345R = biological target: T4, VAL1-B3 Q345R
VAL1-B3 R306A = biological target: T5, VAL1-B3 R306A

| Binder | binding result [1] | further results |
| --- | --- | --- |
| B1 | no binding |  |
| B2 | no binding |  |
| B3 | no binding |  |
| B4 | no binding |  |
| B5 | no binding |  |
| B6 | no binding |  |
| B7 | no binding |  |
| B8 | no binding |  |
| B9 | no binding |  |
| B10 | no binding |  |
| B11 |  | binding result [2]: binds |
| B12 | no binding |  |
| B13 | no binding |  |
| B14 |  | Kd [3]: ~3000 nM; binding result (VAL1-B3 N352A): binds; binding result (VAL1-B3 I307A): binds; binding result (VAL1-B3 Q345R): binds; binding result (VAL1-B3 R306A): no binding |
| B15 | no binding |  |

Reference: PMC5934628
